Data on 28 sequences can be found in the supplement of paper PMC10724198.

This data set concerns Saccharomyces cerevisiae. In words: protein stability index of tFT-peptide fusion (C-terminal peptide) (PSI (0-1 scale)); higher = more stable (slower turnover). The following applies: temperature: 30 C. The protocol: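 MPS profiling in S. cerevisiae of the yeast C-terminome library: the last 12 aa of each annotated ORF are fused to the C-terminus of a sfGFP-mCherry timer, after a GGGS linker. Cells are FACS-sorted into 8 mCherry/sfGFP bins and deep-sequenced. PSI runs from 0 (unstable) to 1 (stable); wild type and das1Δ backgrounds, two technical replicates each.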

Setting [1] is: genetic background: das1 deletion.

± gives the standard deviation of the averaged measurements.

Regarding ARGCCEVTSKRF [YGL188C C-terminal 12 aa], the protein stability index came to 0.683 ± 0.011 under setting [1] and 0.676 ± 0.0099 (genetic background: wild type).
For ARGRRRSKGFKV [RPL18A C-terminal 12 aa] the same measures were 0.722 ± 0.03 and 0.696 ± 0.016.
For ARLDKSLTFEDQ [RIM20 C-terminal 12 aa] the same measures were 0.6983 ± 0.0055 and 0.699 ± 0.038.
For ASDEPSRKKNRR [SSN3 C-terminal 12 aa] the same measures were 0.743 ± 0.044 and 0.704 ± 0.056.
Regarding ASSIYIIFDYEN [BUB3 C-terminal 12 aa], the protein stability index reads like this: under setting [1], 0.6561 ± 0.0041; (genetic background: wild type) 0.637 ± 0.025.
As to ATFSHPELTNIH [SDH6 C-terminal 12 aa], the protein stability index by setting is: under setting [1], 0.716 ± 0.01; (genetic background: wild type) 0.716 ± 0.024.
In the case of ATMALRKLVSRE [MSA2 C-terminal 12 aa], the protein stability index is 0.693 ± 0.025 under setting [1] and 0.705 ± 0.061 (genetic background: wild type).
On the same counts, the results for ATRVSSRLRNKK [EAF7 C-terminal 12 aa] are 0.7311 ± 0.0026 and 0.701 ± 0.025.
On the same counts, the results for ATYLNKSDNQVQ [YLR446W C-terminal 12 aa] are 0.675 ± 0.052 and 0.656 ± 0.024.
Regarding AVERLKLLKDYL [BNA3 C-terminal 12 aa], the protein stability index under setting [1] was 0.685 ± 0.013 and the protein stability index (genetic background: wild type) is 0.73 ± 0.0074.
For AYFALREKKFLL [YIL012W C-terminal 12 aa] the same measures were 0.694 ± 0.019 and 0.641 ± 0.018.
Turning to AYIDTSIPNLLL [REG2 C-terminal 12 aa], the protein stability index runs as follows: under setting [1], 0.707 ± 0.022; (genetic background: wild type) 0.7067 ± 0.0067.
As for AYRTYDISLTEN [DRN1 C-terminal 12 aa], the protein stability index worked out at 0.694 ± 0.035 under setting [1] and 0.656 ± 0.012 (genetic background: wild type).
Regarding CDEVVEHVKASA [PCM1 C-terminal 12 aa], the protein stability index is, setting by setting: under setting [1], 0.708 ± 0.0093; (genetic background: wild type) 0.687 ± 0.017.
On the same counts, the results for “CGGKRNLQRNNF [YLR149C-A C-terminal 12 aa]” are 0.703 ± 0.017 and 0.6759 ± 0.0037.
On the same counts, the results for CLGDSIVNLLLI [YGR259C C-terminal 12 aa] are 0.677 ± 0.011 and 0.3352 ± 0.0027.
In turn, CLREFMNGQRYI [DIA4 C-terminal 12 aa] showed a protein stability index under setting [1] of 0.7021 ± 0.0027 and a protein stability index (genetic background: wild type) of 0.68 ± 0.034.
For CLSIIGFLKTKV [YOR015W C-terminal 12 aa] the same measures were 0.7002 ± 0.0043 and 0.622 ± 0.023.
For the sequence CMKAVILYSEQM [ATE1 C-terminal 12 aa], the protein stability index was found to be 0.675 ± 0.012 under setting [1] and 0.6847 ± 0.0021 (genetic background: wild type).
For CNVCLFPDMYAR [CTF19 C-terminal 12 aa] the same measures were 0.71 ± 0.01 and 0.727 ± 0.039.
As for CNYYYHPRITFA [RMT2 C-terminal 12 aa], the protein stability index is 0.6909 ± 0.0037 under setting [1] and 0.708 ± 0.039 (genetic background: wild type).
Turning to CPHHNPDNQQFF [BIK1 C-terminal 12 aa], the protein stability index by setting is: under setting [1], 0.702 ± 0.025; (genetic background: wild type) 0.702 ± 0.078.
As to CTKHRFGYQNWI [ARP6 C-terminal 12 aa], the protein stability index is, setting by setting: under setting [1], 0.692 ± 0.0049; (genetic background: wild type) 0.692 ± 0.012.
Sequence CVKVQQFSVIVL [YDR193W C-terminal 12 aa] gave a protein stability index under setting [1] of 0.544 ± 0.013 and a protein stability index (genetic background: wild type) of 0.617 ± 0.011.
For DDFDMMEATQLS [MUD2 C-terminal 12 aa] the same measures were 0.70816 ± 0.00051 and 0.696 ± 0.0094.
For DDNEKALTWEEL [ATG19 C-terminal 12 aa] the same measures were 0.706 ± 0.013 and 0.6976 ± 0.0069.
Turning to DEADSSMTEASV [SNF2 C-terminal 12 aa], the protein stability index reads like this: under setting [1], 0.704 ± 0.033; (genetic background: wild type) 0.634 ± 0.015.
On the same counts, the results for DEDVDFLKVQVF [HAP4 C-terminal 12 aa] are 0.709 ± 0.041 and 0.747 ± 0.064.
